Assay: 14C assay with IPTG-induced recombinant E. coli cells (14CO2 capture from [14C]-carboxyl-labeled dicamba)
Conditions: for Dicamba Decarboxylase Activity: IPTG-induced recombinant E. coli cells, [14C]-carboxyl-labeled dicamba, 14CO2 capture; for Enzymatic Detection level: dicamba decarboxylation activity of the protein of the given SEQ ID NO

Molecule	Dicamba Decarboxylase Activity	Enzymatic Detection level
74 (protein, listed as Ramlibacter tataouinensis) MATVIDVHTHMFTTKWLELLKKEGGQYNIQTRPDGQQEIFRGNTPVVIPQKGHFDWKLRIQHMDQAGIDVSVVSLTCPNVYWGGEDVSVRAAREANDNVAQAQTAYPDRIRWFASLPWEYMATVIDVHTHMFTTKWLELLKKEGGQYNIQTRPDGQQEIFRGNTPVVIPQKGHFDWKLRIQHMDQAGIDVSVVSLTCPNVYWGGEDVSVRAAREANDNVAQAQTAYPDRIRWFASLPWEYPQRAVEELERSCAQGAAGVMVLANVAGRSLTDPLFAPVWAEIDRRALPVLVHPTDPPGVDLMDMTKFDLSWSVGFMFDTTLAITRMIFEGFFDRYPNLRIIASHGGGTLPYLVGRFEKGDEVELASRRQMKRKPTDYLRHIHYDCITYNLGALQYLISVVGAGQVMFGTDWPHWVHDTRGAFANTAQLPQEQTRAVRGANAQRLFKL	Low	Low
68 (protein, listed as Hoeflea phototrophica) MAIIDAHTHTLCPAVNEKVAGTIKPDSVPYQRDMSPESKEQDHTQFPELKIMFNQVERRLADMARMGIDRQVIAPAPGQQHYWAEPKLLAEISALQNDHVAELVARAPDRFAGIGTLPMTDPDAAVAEITRATRELGLRVFQIDSRVMERELSDASLDPIYAALEAAGAGLMIHPLGFSNGERLTPFFMVNSVAQPLEELLAFNHLVFGGVLDRFPKLKVYIAHGGGFAPFYIGRFDHAWKVRPEVNRLTPSAPSTYLRRIYFDTCVYRTDHIETLVRTVGADRVMLGSDYPFDMGDTDPLGLLNACQGLSDDEKATISSKVAIDFFGLET	No	No
62 (protein, Bacillus thuringiensis serovar pulsiensis) MAVGGKNFRDVTDQVWCPKKRIEDMDREGVDIQVLSPIPVTFSYWAKPEEAESMARIQNDFIAETVLAYPDRFVGLGTVPMQDGETAIREMERCITELNLHGIEIGTNVNGKNLDDPSFIEFFRMAEKWQVPIFIHPWETLGRDRMPHHNFMYTVGMPSETALAAATLIWSGIMEKFPRLKVCFAHGGGSFPYILPRLDQGWKVWPHLRLTTHPPSYYAKKFYFDSLNYDPINLKYMIERFGHEKIFMGSDYPFLLREVDPGKVIDETASLSEEQKAAMLGGNAAEFLNIDIKKRGVAYAESTNT	No	No
5 (protein, listed as Staphylococcus aureus) MAQNNMEANQMKSITFEEHYVIEDIQKETMNAISADPKGVPMKVMLEGLEKKTGFTNADELSHHDERIQFMNNQDVQIQVLSYGNGSPSNLVGQKAIELCQKANDQLANYIAQYPNRFVGFATLPINEPEAAAREFERCINDLGFKGALIMGRAQDGFLDQDKYDIIFKTAENLGVPIYLHPAPVNSDIYQSYYKGNYPEVTAATFACFGYGWHIDVGIHAIHLVLSGIFDRYPKLNMIIGHWGEFIPFFLERMDEALFAEHLNHPVSYYFKNNFYITPSGMLTKPQFDLVKKEAGIDRILYAADYPYIEPEKLGVFLDELGLTDEEKEKISYTNGAKLLGLSSNN	High	High
72 (protein, Cupriavidus necator) MADCPCCVSPKRRRLLGSVSAIAAGMMAGLPALAAQPSTAAAGTGKPLSIDIHAHYYSESFLGLLGGEGKQFGGHFFRNDDSFTFQTPAGGLGPLPMKFIDVEQRVRDMDNSGVDVQAISLSVPMVYWADRTLNAKLARAWNTAASDVHRKHPTRFVVLATLPMLNANDAIDELEFAAGLPGVRGIYMGTNINNRDLDDPLFSPIFKRIEQLNLPIFLHPQQTVGGARLADFYLSNLLGNPFDTAIAASHLILGGVLDKYPALHFSLPHAGGALPILVGRIDAGWSMRSETKRVAQKPSSYLRRFSYDTISHSGPTLDFLIRNIGADRLVLGSDYCFDMGYEQPVRFLDRLALPDDQKRMVVGGNAARLLNL	Low	Low
69 (protein, listed as Microbacterium testaceum) MATSTEGQDVTDVHAHLLMPGLHAEVERRVPDEVQAAADLELRRNGLASLQASGRMIGERFPRLTDVRARLAAMDEQGVDRQWVSPSPNHFYPWANEGLATWASGEANRLIAEHVALAPDRLVGLGVVPLQHPHLVVDALDDAVLGRGLAGVEISSFAGDVELSDERLESFWARAAELRAVVFLHPFGCSLDERLDRFYLSNTVGQPTENAVALSHLIFSGVLDRHPGLRLIAAHGGGYLPTAIGRSDRAWRVRPEARGCAHAPSTYLSKLWFDTVVHDERALRWLVEAAGADRVLLGSDFPFDMGLDDPVAFVRGAGLQDAEVSGILGGNAAELLRTRVHA	No	No
71 (protein, listed as Burkholderia dolosa) MARAGHRAARTRQSRPGDRTMTCSCCMSAGRRRVLGAFAALAGAPKGPRAASAAQPAAASKPTRGDATARNRHSRALLPGKASASWSATKASGSGGAFAWDDTTFTFRTPAGGLGPLPMKFIDVDARLRDMDASGVDVQALSLSVPMAYWGDRPFNAKLARAWNTAASRVHVRAPDRFVVLATLPMLDATDAIDELERASELPGVRGVYMGTNIDNRDLDDPRFAPVFARIEQLGLPVFLHPQQTVGGARLGDFYLSNLLGNPFDTAIAASHLILGGVLDRHPALHFTLPHAGGALPILVGRLDAGWTVRAETRRLAHQPSGYLRRFSYDTVSHSGPVLNFLIENVGIDRLVLGSDYCFDMGYEQPVRFLDRLDLTPDERAMVIGGNAGRLLRI	Low	Low
64 (protein, listed as Achromobacter piechaudii) MAIQKIDMHAHFFPPITRQEAAALDPVNAPWLRPDADGATGQIMAGEREFRPVDATLWDPALRIEQMDRHGVDVQILCATPIMFGYTYPARPAADWAARMNDLALEHCAYAPSRLKALAQVPLQDLELACQEASRARAAGHLGVQIGNHVGPRDLDDETLVQFLIHCANNDIPVLVHPWDMMTDGRMKKWMLPWLVSMPAETQLGILSLILSGAFERIPRSLKLCFAHGGGSFAYLLGRVDNAWRHRDIIRQDCPQLPSSYTDRFYTDSAVFDPRSLRLLIDVMGEDRVLLGSDYPYPLGEQEVGRLVAHAELVPEVQQKILFRNTMTFFGLQPGLQPGLQS	Low	Low
73 (protein, listed as Sphaerobacter thermophilus) MARIDAHAHAQPPEYLDALLASGRYESVRDAEGRIVVRERGSRFLTITPQMHHPEQRVAEMDEAGIDMQILSVTTPQVYFLQGQAAVDLARRCNDYLADIVRSYPTRFRALASVPLTADPDAAVREFVRCLDDLGMVGAIIGSNIDGRPIDDPAFDAFYAEADRRATTLFIHPMVPAGIEVMNPYALAPLVGFMFDTTLAVSRLIFSGFFERYPRVKVLVGHLGAAVPYLAGRLDIGWRSYSDCQGIPHPPTEYIRRLYLDTVSFHAPALRCALETVGPDRIVFGSDYPHVIGDVGGAIASIQQALPATTHDGVLGHTAAELFGVSA	Low	Low
70 (protein, listed as Alicyclobacillus acidocaldarius) MAIEPNRAADVHTHFLPTEVLEFLKREPRIQVDLERRAPDKEPFLTVEGRWSFELKRMFVDFEAFASAYRQAGIGLALVSPLPQLFVYHLPAEMGAQVAEVYNDALRDVLAPHRERFRPLATLPLADPTAAARELERRMDEGFVGAIVGPGVGEALIGDEAFWPLWEVADARRAVLFLHPLLHADPRAARLMLPNLVGVPWETTLAAAHLVLSGLLDRYPGARVLLAHGGGFLPYQIGRIEQGYDVWPQVRGRLQDRPTAYLRRMFYDNVLWSDAALRCLIDVVGADRVLAGSDFPFDLSAWPPRPGADVSVLAGGSGREGRLS	Low	Low

— patent US20140287419A1, “Compositions Having Dicamba Decarboxylase Activity and Methods of Use” (priority 2013, published 2014)
